Changes are numbered by the printed parent chain. In names and notes the source's numbering stands.
Assays:
Format in all cases: biochemical, Ceriporiopsis subvermispora
[1] = substrate: O=C(O)C(=O)O; assay: Oxalate oxidase kinetics, coupled horse radish peroxidase assay, ALT2 (glyc-)
Source text: (§1) The E. coli expression system was based on the published protocol of Escutia et al. Escutia et al., Cloning and sequencing of two Ceriporiopsis subvermispora bicupin oxalate oxidase allelic isoforms: implications for the reaction specificity of oxalate oxidases and decarboxylases. (2005). The coding sequence for the mature OXOX enzyme was inserted in E. coli expression vector pET32 (Invitrogen) to include a 6× histidine tag at the C-terminus. The resulting expression plasmid was transformed into E. coli strain BL21Star pLysS (Invitrogen).
(§2) E. coli cultures were grown at 37° C. At optical density 0.4, arabinose was added to a concentration or 0.4%. After another hour of growth at 37° C., MnCl2 was added to 5 mM and IPTG to 1 mM. Cultures were then grown at 25° C. for 16 hours. Cells were harvested by centrifugation at 4000 rpm for 10 min. The supernatant was discarded and cell pellets were kept at −80° C. for at least one hour. Pellets were resuspended in total 40 ml of lysis buffer with 50 mM phosphate buffer pH7, 2 mg/ml protease inhibitor (sigma P-8465), 100 mM KCL, 1/1000 lysozyme, 1/2000 endonuclease, and incubated at 37° C. with shaking for one hour, followed by sonication. Cellular debris was removed by centrifugation and the clarified supernatant was poured into a new tube. Nickel resin (Qiagen) was added. After a short period of incubation, the slurry was poured onto a column and washed with buffer. Purified OXOX protein was eluted from the resin in 50 mM succinate pH 5, 100 mM KCl. The E. coli expression procedure was scalable allowing large scale protein production for kinetic analysis as well as small scale production for high throughput screening of libraries.
(§3) Oxalate oxidase enzymatic activity was determined in a coupled reaction. Oxalate oxidase converts oxalic acid to carbon dioxide and hydrogen peroxide. In the presence of horse radish peroxidase, hydrogen peroxide reacts with 3-methyl-2-benzothiazolinone hydrazone (MBTH) and N,N-dimethylaniline (DMA) to form indamine dye, which can be detected spectrophotmetrically or colorimetrically as described by Laker, M. F., Hoffman, A. F., and Meeuse, J. D. (1980) Clinical Chemistry 26, 827-830. The coupled reaction was used for characterization of oxalate oxidase kinetic properties as well as in a screening procedure to identify oxalate oxidase variants with improved enzymatic properties.
Three potential glycosylations sites with the consensus amino acid sequence N—X—(S/T) were identified in OXOX-C at amino acid positions 60, 384 and 430 in SEQ ID NO:27. Site-directed mutagenesis was used to alter these sites (Quickchange, Stratagene). Every possible amino acid substitution was generated at the third amino acid position of each potential glyosylation site. The resulting variants were screened for activity using the enzymatic assay described in Example 3. […] These variants correspond to sequences OXOX-C-MOD1-ALT1 (SEQ ID NO:23) and OXOX-C-MOD1-ALT2 (SEQ ID NO:24).
(§4) More modest improvements in Km and Kcat were observed under lower pH conditions. Coupled reaction was preformed as described in Example 3. Enzyme kinetic parameters were determined by standard methods as described in Segel (1976) Biochemical calculations, 2nd Edition. John Wiley & Sons, London, New York, Sydney, Toronto.

[2] = substrate: O=C(O)C(=O)O; assay: Oxalate oxidase kinetics, coupled horse radish peroxidase assay, ALT5 (2-6)
Source text: as §1, §2, §3
(§5) DNA shuffling was performed as described elsewhere herein. A polymerase chain reaction product corresponding to the OXOX-C coding sequence was fragmented by limited nuclease treatment. Synthetic oligonucleotides encoding sequence diversity from oxalate decarboxylase sequences found in public databases were added. A polymerase chain reaction procedure was performed on the mixture to yield a library of full length OXOX-C coding sequences with additional diversity incorporated. The resulting library was inserted in expression vector pET32, E. coli cells were transformed and protein was expressed, as described in Example 2. A tiered screening strategy was devised based on the OXOX protein expression and enzymatic activity determination procedures described in Examples 2 and 3, respectively. A high throughput screening process based on colorimetric determination of OXOX activity was utilized to identify individual E. coli strains harboring active OXOX variants. These OXOX-active strains were reassayed using quantitative spectrophotometric determination of OXOX activity. […] Three rounds of this iterative screening and selection procedure were completed, and OXOX variants with up to 8-fold improved activity were identified
as §4

[3] = substrate: O=C(O)C(=O)O; assay: Oxalate oxidase kinetics, coupled horse radish peroxidase assay, ALT6 (3-21)
Source text: as §1, §2, §3, §5, §4

[4] = substrate: O=C(O)C(=O)O; assay: Oxalate oxidase kinetics, coupled horse radish peroxidase assay, ALT7 (3-25)
Source text: as §1, §2, §3, §5, §4

[5] = substrate: O=C(O)C(=O)O; assay: Oxalate oxidase kinetics, coupled horse radish peroxidase assay, FG23
Source text: as §1, §2, §3, §5, §4

B1: Ceriporiopsis subvermispora oxalate oxidase OXOX-C variant ALT2 (glyc-), glycosylation minus, T60R/T384V/S430D relative to SEQ ID NO: 37, SEQ ID NO: 24 … (protein)
chain: RPTENGPQIVIANNAGTYLPVLRGSGTKSSSAADATQTVPFASDDPNPRLWDIDTKNLRKVTPERGQLGAKILGPDNLPIDLQNADTLAPPTTDSGSIPNPKWPFALSHNTLYSGGWVRIQNDEVMPIAKAMAGVNMRLEAGAIRELHWHNTPEWAYILKGTTQITAVDQNGRNYLANVGPGDLWYFPEGMPHSLQGTDANNEGSEFLLIFPDGTFDSSNQFMITDWLAHTPKDVIAKNFGVDISEFDRLPSHDLYIFPGVAPPLDAKAPEDPQGTIPLPYSFEFSKVKPTQYAGGTVKIADTRTFPIAKTISVAEVTVEPGAMRELHWHPTEDEWTFFIEGQARVTIFAGQSNAQTYDYQGGDIAYIPTAWGHYVENSGNTVLRFLEIFNSPLFEDVSLAQWIANTPPAIVKATLQLSDEVINTLNKDKAFVVG
notes: glycosylation sites removed
In the case of B1, the Km ([1]; other: pH 3.8, pH 3.8) is reported as 280 µM, the kcat ([1]; other: pH 3.8, pH 3.8) is reported as 5.60 s⁻¹ and the Km ([1]; other: pH 4.8, pH 4.8) is reported as 1240 µM. It also gave a kcat ([1]; other: pH 4.8, pH 4.8) of 2.99 s⁻¹, a Km ([1]; other: pH 5.8, pH 5.8) of 5900 µM and a kcat ([1]; other: pH 5.8, pH 5.8) of 0.91 s⁻¹.

B2: Ceriporiopsis subvermispora oxalate oxidase OXOX-C variant ALT5 (2-6), I54M/I60E/I99V/W118Y/F259Y/I278V/F339Y/Y359F/F396Y relative to OXOX-C-ALT1 (SEQ ID NO: … (protein)
chain: RPTENGPQIVIANNAGTYLPVLRGSGTKSSSAADATQTVPFASDDPNPRLWDMDTKNLEKVTPERGQLGAKILGPDNLPIDLQNADTLAPPTTDSGSVPNPKWPFALSHNTLYSGGYVRIQNDEVMPIAKAMAGVNMRLEAGAIRELHWHNTPEWAYILKGTTQITAVDQNGRNYLANVGPGDLWYFPEGMPHSLQGTDANNEGSEFLLIFPDGTFDSSNQFMITDWLAHTPKDVIAKNFGVDISEFDRLPSHDLYIYPGVAPPLDAKAPEDPQGTVPLPYSFEFSKVKPTQYAGGTVKIADTRTFPIAKTISVAEVTVEPGAMRELHWHPTEDEWTYFIEGQARVTIFAGQSNAQTFDYQGGDIAYIPTAWGHYVENSGNTQLRFLEIFNSPLYEDVSLAQWIANTPPAIVKATLQLSDEVINTLNKQKAFVVG
B2 gave a Km ([2]; other: pH 3.8, pH 3.8) of 460 µM, a kcat ([2]; other: pH 3.8, pH 3.8) of 10.01 s⁻¹ and a Km ([2]; other: pH 4.8, pH 4.8) of 2320 µM. It also gave a kcat ([2]; other: pH 4.8, pH 4.8) of 7.06 s⁻¹, a Km ([2]; other: pH 5.8, pH 5.8) of 8910 µM and a kcat ([2]; other: pH 5.8, pH 5.8) of 2.44 s⁻¹.

B3: Ceriporiopsis subvermispora oxalate oxidase OXOX-C variant ALT6 (3-21), L23P/I60E/T63Q/I99V/L177M/L196I/F259Y/I278V/F339Y/F387Y/F396Y relative to OXOX-C-ALT1 … (protein)
chain: B2 chain with L22P, M53I, T62Q, Y117W, L176M, L195I, F358Y, F386Y
In the case of B3, the Km ([3]; other: pH 3.8, pH 3.8) is reported as 120 µM, the kcat ([3]; other: pH 3.8, pH 3.8) is reported as 2.79 s⁻¹ and the Km ([3]; other: pH 4.8, pH 4.8) is reported as 550 µM. For the same protein, the kcat ([3]; other: pH 4.8, pH 4.8) was 2.61 s⁻¹, the Km ([3]; other: pH 5.8, pH 5.8) was 1460 µM and the kcat ([3]; other: pH 5.8, pH 5.8) was 1.72 s⁻¹.

B4: Ceriporiopsis subvermispora oxalate oxidase OXOX-C variant ALT7 (3-25), L23P/I54M/I60E/I99V/W118Y/P154A/I159V/L177M/D218N/F259Y/I278V/F339Y/Y359F/G363A/F396Y … (protein)
chain: B2 chain with L22P, P153A, I158V, L176M, D217N, G362A
Protein B4 has a Km ([4]; other: pH 3.8, pH 3.8) of 450 µM, a kcat ([4]; other: pH 3.8, pH 3.8) of 12.01 s⁻¹ and a Km ([4]; other: pH 4.8, pH 4.8) of 2170 µM. It also gave a kcat ([4]; other: pH 4.8, pH 4.8) of 8.28 s⁻¹, a Km ([4]; other: pH 5.8, pH 5.8) of 7840 µM and a kcat ([4]; other: pH 5.8, pH 5.8) of 5.85 s⁻¹.

B5: Ceriporiopsis subvermispora oxalate oxidase OXOX-C variant FG23 (3-FG23), … (protein)
chain: RPTENGPQIVIANNAGTYLPVLRGSGTKSSSAADATQTVPFASDDPNPRLWNIDTQDLSVVAPERGPLGAKILGPDNLPIDLQNADTLAPPTTDSGSVPNPKWPFALSHNTLYSGGWVRIQNNEVLPIAKAMAGVNMRLEAGAIRELHWHNTPEWAYILKGTTQITAVDQNGRNYLANVSPGDLWYFPEGIPHSLQGTDANNEGSEFLLIFPDGTFDASNQFMITDWLAHTPKDVIAKNFGVDISEFDRLPSHDLYIFPGVAPPLDAKAPEDPQGTVPLPYSFEFSKVKPTQYAGGTVKIADTRTFPIAKTISVAEVTVEPGAMRELHWHPTEDEWTFFIEGQARVTIFAGQSNAQTYDYQGGDIAYIPTAYGHYVENSGNTQLRFLEIFNSPLFEDVSLAQWIANTPPAIVKATLQLSDEVIDSLNKQKASVVG
Protein B5 has a Km ([5]; other: pH 3.8, pH 3.8) of 380 µM, a kcat ([5]; other: pH 3.8, pH 3.8) of 7.06 s⁻¹ and a Km ([5]; other: pH 4.8, pH 4.8) of 1210 µM. The kcat ([5]; other: pH 4.8, pH 4.8) was 4.62 s⁻¹, the Km ([5]; other: pH 5.8, pH 5.8) was 5250 µM and the kcat ([5]; other: pH 5.8, pH 5.8) was 2.61 s⁻¹.

Source: patent US20110191903A1, “ENGINEERING PLANT RESISTANCE TO DISEASES CAUSED BY PATHOGENS” (Pioneer Hi-Bred International, Inc., priority 2009, published 2011)
